The values below come from patent publication US20230037552A1 (published 2023).

Experiment [1] deals with T1, MAGEA1 peptide on HLA-A*02:16 (human).
T1 peptide: KVLEYVIKV
Put plainly: cytokine release.

Experiment [2] has as its target T2, MAGEA1 peptide on HLA-A*02:17 (human).
T2 peptide: KVLEYVIKV
Put plainly: cytokine release.

Experiment [3] has as its target T3, MAGEA1 KVL peptide, threonine substitution at position 5 (Y) peptide on HLA-A*02:01 (human).
T3 peptide: KVLETVIKV
Put plainly: cytokine release.

For experiment [4], the target named is T4, MAGEA1 KVL peptide, threonine substitution at position 3 (L) peptide on HLA-A*02:01 (human).
T4 peptide: KVTEYVIKV
Nature of the experiment: cytokine release.

Experiment [5] addresses T5, MAGEA1 KVL peptide, threonine substitution at position 1 (K) peptide on HLA-A*02:01 (human).
T5 peptide: TVLEYVIKV
Nature of the experiment: cytokine release.

The target of experiment [6] is T6, ASTN1 peptide on HLA-A*02:01 (human).
T6 peptide: KLYGLDWAEL
Nature of the experiment: cytokine release.

The target in experiment [7] is T7, MAGEA1 peptide on HLA-A*02:04 (human).
T7 peptide: KVLEYVIKV
Put plainly: cytokine release.

The target of experiment [8] is T8, MAGEA1 peptide on HLA-A*02:01 (human).
T8 peptide: KVLEYVIKV
Nature of the experiment: multimer staining.

B1: TCR T15.8-4.3-83 (TCR, V domains shown)
Valpha: AQKVTQAQTEISVVEKEDVTLDCVYETRDTTYYLFWYKQPPSGELVFLIRRNSFDEQNEISGRYSWNFQKSTSSFNFTITASQVVDSAVYFCALSEVASGGSYIPTFGRGTSLIVHP
Vbeta: SQTIHQWPATLVQPVGSPLSLECTVEGTSNPNLYWYRQAAGRGLQLLFYSVGIGQISSEVPQNLSASRPQDRQFILSSKKLLLSDSGFYLCAWSGSGGNQPQHFGDGTRLSIL
As to B1, the binding result in experiment [1] was “recognises”; in experiment [2], “recognises”; in experiment [3], “no recognition”; in experiment [4] it was “no recognition”; in experiment [5] it was “no recognition”; in experiment [6], “no recognition”. The binding result in experiment [7] and in experiment [8] was “recognises” each time.
